Substitutions are numbered along the chain they refer to. Read-outs that look alike come from different tables or passages of the source.
T1: hPifHD (human Pif1 helicase domain) (Homo sapiens, UniProt Q9H611 206-620)
T1 sequence: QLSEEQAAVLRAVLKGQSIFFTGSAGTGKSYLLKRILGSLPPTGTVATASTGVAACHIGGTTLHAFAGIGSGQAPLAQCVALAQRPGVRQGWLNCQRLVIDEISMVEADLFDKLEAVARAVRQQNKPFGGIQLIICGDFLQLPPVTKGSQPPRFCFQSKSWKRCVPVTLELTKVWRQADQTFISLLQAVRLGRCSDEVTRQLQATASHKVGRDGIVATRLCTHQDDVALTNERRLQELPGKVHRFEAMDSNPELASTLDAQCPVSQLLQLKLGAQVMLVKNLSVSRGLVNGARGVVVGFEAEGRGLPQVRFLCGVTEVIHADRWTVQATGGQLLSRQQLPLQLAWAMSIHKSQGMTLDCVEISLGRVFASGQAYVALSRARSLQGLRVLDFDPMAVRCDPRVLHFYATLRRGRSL

T2: hPifHD E307Q (Homo sapiens, UniProt Q9H611 206-620, E307Q)
T2 sequence: T1 sequence with E102Q

B1: T55 (ssDNA)
DNA: TTTTTTTTTTTTTTTTTTTTTTTTTTTTTTTTTTTTTTTTTTTTTTTTTTTTTTT

Experiments:
Assay in all cases: EMSA
[1] = molecular target: T1, hPifHD (human Pif1 helicase domain)
[2] = molecular target: T1, hPifHD (human Pif1 helicase domain); remark: listed apart in the source
[3] = molecular target: T2, hPifHD E307Q

Binder | binding result [1] | other results
TTTTTTTTTTTTTTTTTTTTTTTTTTTTTTTTTTT (ssDNA) [T35] | binds | 
TTTTTTTTTTTTTTTTTTTTTTTTTTTTTTTTTTTTTTTTTTTTTTTTTT (ssDNA) [T50] | binds | 
TTTTTTTTTTTTTTTTTTTTTTTTT (ssDNA) [T25] |  | binding result [2]: no binding
B1 |  | binding result [3]: binds
